Data: US20240158448A1, “MULTIVALENT NANO-'SELF' PEPTIDES AND USES THEREOF” (THE TRUSTEES OF THE UNIVERSITY OF PENNSYLVANIA, priority 2021, published 2024)

Target: human CD47 expressed on cells (red blood cells, K562 cells, THP-1 macrophages) (human) (UniProt Q08722)
Assay: cell-based or functional assay

% THP-1 macrophages phagocytosing opsonized RBCs: 30%
B1: mouse anti-human CD47 antibody B6H12 (BD Biosciences) (antibody, from another filing, V domains shown)
VH: EVQLVESGGDLVKPGGSLKLSCAASGFTFSGYGMSWVRQTPDKRLEWVATITSGGTYTYYPDSVKGRFTISRDNAKNTLYLQIDSLKSEDTAIYFCARSLAGNAMDYWGQGTSVTVSS
VL: DIVMTQSPATLSVTPGDRVSLSCRASQTISDYLHWYQQKSHESPRLLIKFASQSISGIPSRFSGSGSGSDFTLSINSVEPEDVGVYYCQNGHGFPRTFGGGTKLEIK
